Laboratory results as given in article doi:10.1101/2023.02.21.529347v1.

B1: MSMEG_2850 (Mycolicibacterium smegmatis MC2 155) (protein)
chain: MTEAIDWDQMNNQVIKEFRETGGKAGGLFEGSPLVLVHHTGAKSGKQRIAPLVPLLDGDRIYIFGSKGGADSHPDWYHNLVANPDTVVELGTETFPVKARVLTGAERDEIYAKQVAVAPQFGDYQRKTTRVIPVVELQRV
B2: MSMEG_2027 (Mycolicibacterium smegmatis MC2 155) (protein)
chain: MTDAELSPTDWVREQTERILEQGTTDGVHVLDRPIVLFTTTGAKSGKKRYVPLMRVEENGKYAMVASKGGDPKHPSWYFNVKANPTVSVQDGDKVLPDRTARELEGEEREHWWKLAVEAYPPYAEYQTKTDRLIPVFIVE

Tests used:
Assay in all cases: purified protein
purified protein [1] = substrate: C=C(C)[C@@H]1CC=C(C)C(=O)C1; conditions: co-substrate F420H2; apparent value
purified protein [2] = substrate: C=C(C)[C@H]1CC=C(C)C(=O)C1; conditions: co-substrate F420H2; apparent value
purified protein [3] = substrate: CC1(C)[C@H]2CC=C(C=O)[C@@H]1C2; conditions: co-substrate F420H2; apparent value
purified protein [4] = substrate: CC1=CC(=O)CC(C)(C)C1=O; conditions: co-substrate F420H2; apparent value; fit with substrate inhibition
purified protein [5] = substrate: CC1=CC(=O)CC1; conditions: co-substrate F420H2; apparent value
purified protein [6] = substrate: CC1=CC(=O)CCC1; conditions: co-substrate F420H2, apparent value
purified protein [7] = substrate: CC1=CCCC1=O; conditions: co-substrate F420H2; apparent value
purified protein [8] = substrate: CC1=CCCCC1=O; conditions: co-substrate F420H2; apparent value

Protein | Km (purified protein [1]) [mM] | kcat (purified protein [1]) [s⁻¹] | Km (purified protein [2]) [mM] | kcat (purified protein [2]) [s⁻¹] | Km (purified protein [3]) [mM] | kcat (purified protein [3]) [s⁻¹] | Km (purified protein [4]) [mM] | kcat (purified protein [4]) [s⁻¹] | Km (purified protein [5]) [mM] | kcat (purified protein [5]) [s⁻¹] | Km (purified protein [6]; fit with substrate inhibition) [mM] | kcat (purified protein [6]; fit with substrate inhibition) [s⁻¹] | Km (purified protein [7]) [mM] | kcat (purified protein [7]) [s⁻¹] | Km (purified protein [8]) [mM] | kcat (purified protein [8]) [s⁻¹] | Km (purified protein [6]) [mM] | kcat (purified protein [6]) [s⁻¹]
B1 | 1.62 ± 0.18 | 0.08 ± 0.003 | 2.07 ± 0.39 | 0.05 ± 0.004 | 0.58 ± 0.07 | 0.16 ± 0.005 | 0.10 ± 0.008 | 1.35 ± 0.028 | 4.30 ± 0.74 | 0.10 ± 0.008 | 6.73 ± 6.84 | 4.02 ± 3.30 | 7.67 ± 3.21 | 0.16 ± 0.04 | 9.18 ± 2.22 | 1.59 ± 0.23 |  | 
B2 | 1.29 ± 0.32 | 0.11 ± 0.008 | 1.30 ± 0.28 | 0.09 ± 0.006 | 0.31 ± 0.03 | 0.74 ± 0.017 | 3.88 ± 0.68 | 0.39 ± 0.05 | 0.12 ± 0.05 | 0.01 ± 0.001 |  |  | 1.00 ± 0.13 | 0.55 ± 0.02 | 2.56 ± 0.48 | 0.62 ± 0.05 | 4.29 ± 3.46 | 1.10 ± 0.41
